Publication doi:10.1101/2024.07.03.601791 (bioRxiv, 2024)
Where “and” joins values, the source holds several entries; their conditions need not be identical. Equal entries are not always repeated. Each block holds one binder with its values, some of them ahead of it.

Columns and labels:
Karyopherinβ2 (Kapβ2) [1] = biological target: T1, Karyopherinβ2 (Kapβ2) (human, UniProt Q92973-2 1-890); test: hydrogel binding assay
T1 sequence (looked up): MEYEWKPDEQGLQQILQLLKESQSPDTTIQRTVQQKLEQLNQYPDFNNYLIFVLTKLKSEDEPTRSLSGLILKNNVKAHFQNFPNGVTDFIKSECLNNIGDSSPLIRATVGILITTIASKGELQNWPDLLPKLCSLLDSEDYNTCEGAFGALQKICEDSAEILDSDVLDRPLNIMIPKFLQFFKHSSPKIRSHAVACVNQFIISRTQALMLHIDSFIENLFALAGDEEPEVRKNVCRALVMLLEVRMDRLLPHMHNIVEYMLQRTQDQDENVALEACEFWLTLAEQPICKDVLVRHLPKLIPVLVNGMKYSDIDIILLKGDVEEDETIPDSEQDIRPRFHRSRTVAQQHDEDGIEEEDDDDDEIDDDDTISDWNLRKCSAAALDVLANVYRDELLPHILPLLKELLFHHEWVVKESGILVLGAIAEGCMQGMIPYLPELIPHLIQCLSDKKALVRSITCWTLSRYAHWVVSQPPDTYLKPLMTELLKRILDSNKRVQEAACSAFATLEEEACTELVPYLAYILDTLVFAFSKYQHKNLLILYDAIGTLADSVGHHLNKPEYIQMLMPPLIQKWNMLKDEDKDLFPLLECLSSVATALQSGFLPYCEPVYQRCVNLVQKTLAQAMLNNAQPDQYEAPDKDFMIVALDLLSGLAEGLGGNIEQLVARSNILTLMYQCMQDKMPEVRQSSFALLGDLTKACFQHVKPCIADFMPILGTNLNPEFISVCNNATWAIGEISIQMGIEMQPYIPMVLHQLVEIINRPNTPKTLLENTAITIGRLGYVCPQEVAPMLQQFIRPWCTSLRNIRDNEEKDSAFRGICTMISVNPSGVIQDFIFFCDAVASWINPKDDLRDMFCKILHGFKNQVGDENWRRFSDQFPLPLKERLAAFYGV

[2] = biological target: T2, mCherry fusion LC-domain of FUS (residue 2–214, mCh:FUS-LC) (UniProt P35637 2-214); test: hydrogel binding assay
T2 sequence (looked up): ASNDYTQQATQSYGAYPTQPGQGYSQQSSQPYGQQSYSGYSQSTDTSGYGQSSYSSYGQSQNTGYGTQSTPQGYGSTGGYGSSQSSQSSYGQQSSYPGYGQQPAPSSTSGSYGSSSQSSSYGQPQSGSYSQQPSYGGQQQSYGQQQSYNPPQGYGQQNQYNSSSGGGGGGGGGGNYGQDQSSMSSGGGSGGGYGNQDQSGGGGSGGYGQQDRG

Karyopherinβ2 (Kapβ2) [3] = biological target: T1, Karyopherinβ2 (Kapβ2); test: chemical tongue
Karyopherinβ2 (Kapβ2) [4] = biological target: T1, Karyopherinβ2 (Kapβ2); test: SEC
Karyopherinβ2 (Kapβ2) [5] = biological target: T1, Karyopherinβ2 (Kapβ2); test: AUC
GTP-bound Ran (Q69L) = GTP-bound Ran (Q69L) (UniProt P62826 1-216, Q69L); test: pull-down

Binder: GRGRGRGRGRGRGRGRGRGRGRGRGRGRGRGRGRGRGRGR [GR20]
binding result (Karyopherinβ2 (Kapβ2) [3]): binds

Binder: PRPRPRPRPRPRPRPRPRPRPRPRPRPRPRPRPRPR [maltose-binding protein (MBP)-PR18]
stoichiometry N (Karyopherinβ2 (Kapβ2) [4]): 2
stoichiometry N (Karyopherinβ2 (Kapβ2) [5]): 1 and ≥ 2

B1: GST-Kapβ2 (natural protein)
chain: T1 sequence (looked up)
binding result (GTP-bound Ran (Q69L)): binds

Further lines, results first:

binding result (Karyopherinβ2 (Kapβ2) [1]): binds
binding result [2]: binds
Binder: PRPRPRPRPRPRPRPRPRPRPRPRPRPRPRPRPRPRPRPR [GFP fusion 20 repeats of PR (GFP:PR20)]

binding result (Karyopherinβ2 (Kapβ2) [3]): binds
Binder: PRPRPRPRPRPRPRPRPRPRPRPRPRPRPRPRPRPRPRPR [PR20]
